T1: recombinant laminin LAMA3_(2928–3150) protein (human, UniProt Q16787 2928-3150)
T1 chain: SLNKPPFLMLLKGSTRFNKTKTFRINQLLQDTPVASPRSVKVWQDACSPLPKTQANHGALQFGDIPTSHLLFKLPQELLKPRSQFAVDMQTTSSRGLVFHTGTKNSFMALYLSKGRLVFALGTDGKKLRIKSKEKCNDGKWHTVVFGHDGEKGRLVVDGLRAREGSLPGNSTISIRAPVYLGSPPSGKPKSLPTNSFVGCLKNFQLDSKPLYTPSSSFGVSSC

B1: vascular endothelial cell growth factor VEGF-A165 (ligand)
chain: APMAEGGGQNHHEVVKFMDVYQRSYCHPIETLVDIFQEYPDEIEYIFKPSCVPLMRCGGCCNDEGLECVPTEESNITMQIMRIKPHQGQHIGEMSFLQHNKCECRPKKDRARQENPCGPCSERRKHLFVQDPQTCKCSCKNTDSRCKARQLELNERTCRCDKPRR
B2: placental growth factor (PlGF)-2 (ligand)
chain: LPAVPPQQWALSAGNGSSEVEVVPFQEVWGRSYCRALERLVDVVSEYPSEVEHMFSPSCVSLLRCTGCCGDENLHCVPVETANVTMQLLKIRSGDRPSYVELTFSQHVRCECRPLREKMKPERRRPKGRGKRRREKQRPTDCHLCGDAVPRR
B3: platelet-derived growth factor PDGF-BB (ligand)
chain: SLGSLTIAEPAMIAECKTRTEVFEISRRLIDRTNANFLVWPPCVEVQRCSGCCNNRNVQCRPTQVQLRPVQVRKIEIVRKKPIFKKATVTLEDHLACKCETVAAARPVT

Legend:
Assay in all cases: SPR
[1] = target: T1, recombinant laminin LAMA3_(2928–3150) …
[2] = target: recombinant human laminin-521 (human, UniProt O15230 36-3695; P55268 33-1798; P11047 34-1609)
[3] = target: T1, recombinant laminin LAMA3_(2928–3150) …

Row | Binder | Kd [1] [nM] | koff [2] [s⁻¹] | koff [3] [s⁻¹]
1 | B1 | 1.47 | 0.00324 | 0.00663
2 | B2 |  | 0.0246 | 
3 | B3 | 12.1 | 0.00497 | 0.0136
